Assay results: paper PMC3411732, “Binding of the Heterogeneous Ribonucleoprotein K (hnRNP K) to the Epstein-Barr Virus Nuclear Antigen 2 (EBNA2) Enhances Viral LMP2A Expression” (PLoS ONE, 2012)

Molecular target: T1, EBNA2-wt, transiently expressed in HEK 293-T cells (Epstein-Barr virus, UniProt P12978 1-487, arginines of the RG-repeat (aa 339–354) symmetrically or asymmetrically di-methylated (SDMA or ADMA))
T1 sequence (looked up): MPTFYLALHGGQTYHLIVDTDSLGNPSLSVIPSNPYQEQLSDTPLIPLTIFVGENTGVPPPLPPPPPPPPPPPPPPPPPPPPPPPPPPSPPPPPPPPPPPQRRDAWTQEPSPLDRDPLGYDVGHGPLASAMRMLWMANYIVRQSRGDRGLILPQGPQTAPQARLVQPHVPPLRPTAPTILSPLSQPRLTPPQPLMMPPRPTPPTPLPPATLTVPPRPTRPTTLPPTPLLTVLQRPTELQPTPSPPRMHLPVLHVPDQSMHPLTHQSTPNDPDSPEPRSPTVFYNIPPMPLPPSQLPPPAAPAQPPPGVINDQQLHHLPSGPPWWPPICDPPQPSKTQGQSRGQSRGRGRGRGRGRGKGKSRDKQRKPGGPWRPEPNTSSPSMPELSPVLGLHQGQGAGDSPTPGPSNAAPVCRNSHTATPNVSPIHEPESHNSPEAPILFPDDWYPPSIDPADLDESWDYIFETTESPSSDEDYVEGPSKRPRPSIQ
Assay: cell-based or functional assay

B1: GFP-hnRNP K (wild type), expressed in 293T cells (natural protein)
chain: not shown
Q: How did the “LMP2A promoter luciferase reporter in DG75 cells; co-expression of hnRNP K-wt (pSG5-HA-hnRNP K) with EBNA2-wt (pSG5-EBNA2)” value turn out when B1 was run?
A: ≤ 3 fold
